Data set [1] deals with the molecule itself. The experiment in a line: sedimentation of polymers; FtsZ variants (5 μM) in Pol buffer with 10 mM CaCl2 and 2.5 mM GTP, room temperature, ultracentrifugation at 100,000 rpm for 15 min at 25°C; polymerization of FtsZ with itself.
Data set [2] concerns the target T1, FtsZ^D212N (Escherichia coli, UniProt P0A9A6 1-383, D212N).
T1 construct: also called GTPase mutant (FtsZ^D212N); source: E. coli BL21/pLys, purified (Ni-NTA; His-SUMO tag cleaved with Ulp1); not shown: His-SUMO, N-terminal, cleaved
T1 sequence (looked up): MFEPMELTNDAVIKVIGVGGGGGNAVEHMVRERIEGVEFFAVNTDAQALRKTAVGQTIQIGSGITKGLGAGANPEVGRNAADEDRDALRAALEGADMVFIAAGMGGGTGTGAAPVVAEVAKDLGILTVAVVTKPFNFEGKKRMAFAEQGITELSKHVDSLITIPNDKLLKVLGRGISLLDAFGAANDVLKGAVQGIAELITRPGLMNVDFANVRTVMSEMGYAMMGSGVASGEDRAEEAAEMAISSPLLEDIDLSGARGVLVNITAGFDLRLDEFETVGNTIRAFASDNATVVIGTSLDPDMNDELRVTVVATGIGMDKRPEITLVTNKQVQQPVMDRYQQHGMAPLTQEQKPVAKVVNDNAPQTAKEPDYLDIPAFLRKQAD
As to the kind of experiment: pull-down; H-SUMO-ZapA (6 μM) and FtsZ (2 μM) in Pol buffer (50 mM HEPES-NaOH pH 6.8, 50 mM KCl, 10 mM MgCl2), GTP in the buffers throughout, held on Ni-NTA agarose, washed with 500 mM NaCl and 20 mM imidazole, eluted with 250 mM imidazole; fractions on SDS-PAGE. Conditions: both partners purified.

Data set [3] concerns the target T2, wild-type FtsZ (Escherichia coli, UniProt P0A9A6 1-383).
T2 construct: FtsZ, Escherichia coli; Forms filaments with GTP; GTP was present in the pull-down and the sedimentation assays; source: E. coli BL21/pLys, purified (Ni-NTA; His-SUMO tag cleaved with Ulp1); not shown: His-SUMO, N-terminal, cleaved
T2 sequence (looked up): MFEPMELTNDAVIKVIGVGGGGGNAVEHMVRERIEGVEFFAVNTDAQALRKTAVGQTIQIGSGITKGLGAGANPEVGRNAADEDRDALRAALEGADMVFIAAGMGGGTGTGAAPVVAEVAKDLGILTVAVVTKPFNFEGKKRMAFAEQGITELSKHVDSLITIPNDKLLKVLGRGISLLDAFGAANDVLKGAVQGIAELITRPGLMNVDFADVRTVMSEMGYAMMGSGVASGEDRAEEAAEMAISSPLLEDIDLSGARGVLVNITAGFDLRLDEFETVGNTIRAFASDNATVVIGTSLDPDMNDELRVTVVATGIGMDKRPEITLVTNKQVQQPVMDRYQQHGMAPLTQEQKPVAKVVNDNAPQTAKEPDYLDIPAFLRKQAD
As to the kind of experiment: co-sedimentation; FtsZ or variants (5 μM) with or without equal molar untagged ZapA, 2.5 mM GTP, no Ca2+, room temperature 5 min, ultracentrifugation; pellets and supernatants on SDS-PAGE; 50 mM HEPES pH 6.8, 10 mM MgCl2, 200 mM KCl (legend of Figure 4A). As to conditions: both partners purified.

B1: FtsZ^F2A (natural protein, Escherichia coli, UniProt P0A9A6 1-383, looked up)
chain: MAEPMELTNDAVIKVIGVGGGGGNAVEHMVRERIEGVEFFAVNTDAQALRKTAVGQTIQIGSGITKGLGAGANPEVGRNAADEDRDALRAALEGADMVFIAAGMGGGTGTGAAPVVAEVAKDLGILTVAVVTKPFNFEGKKRMAFAEQGITELSKHVDSLITIPNDKLLKVLGRGISLLDAFGAANDVLKGAVQGIAELITRPGLMNVDFADVRTVMSEMGYAMMGSGVASGEDRAEEAAEMAISSPLLEDIDLSGARGVLVNITAGFDLRLDEFETVGNTIRAFASDNATVVIGTSLDPDMNDELRVTVVATGIGMDKRPEITLVTNKQVQQPVMDRYQQHGMAPLTQEQKPVAKVVNDNAPQTAKEPDYLDIPAFLRKQAD
notes: FtsZ, Escherichia coli; source: E. coli BL21/pLys, purified (Ni-NTA; His-SUMO tag cleaved with Ulp1); not shown: His-SUMO, N-terminal, cleaved
On to B1, for which the binding result in data set [1] is recorded as “binds”.

B2: H-SUMO-ZapA (natural protein, Escherichia coli, UniProt P0ADS2 1-109, looked up)
chain: MSAQPVDIQIFGRSLRVNCPPDQRDALNQAADDLNQRLQDLKERTRVTNTEQLVFIAALNISYELAQEKAKTRDYAASMEQRIRMLQQTIEQALLEQGRITEKTNQNFE
notes: ZapA, Escherichia coli; Held on Ni-NTA agarose by the His tag in the pull-down; source: E. coli BL21 (DE3)/pLys, purified (Ni-NTA); not shown: His, N-terminal, kept; SUMO, N-terminal, kept
As to B2, the binding result in data set [2] is on record as “binds”.

B3: untagged ZapA (natural protein, Escherichia coli, UniProt P0ADS2 1-109, looked up)
chain: MSAQPVDIQIFGRSLRVNCPPDQRDALNQAADDLNQRLQDLKERTRVTNTEQLVFIAALNISYELAQEKAKTRDYAASMEQRIRMLQQTIEQALLEQGRITEKTNQNFE
notes: ZapA, Escherichia coli; source: E. coli BL21 (DE3)/pLys, purified (Ni-NTA; His-SUMO tag cleaved with Ulp1); not shown: His-SUMO, N-terminal, cleaved
Take B3: the binding result in data set [3] was “binds”.
